Assay results: article PMC5451212, “RISC-interacting clearing 3’- 5’ exoribonucleases (RICEs) degrade uridylated cleavage fragments to maintain functional RISC in Arabidopsis thaliana” (eLife, 2017)

What was measured:
MBP-AGO10 = target: T1, MBP-AGO10 (A. thaliana, UniProt Q9XGW1 1-988); assay: pull-down; His-SUMO baits and MBP-fusion preys purified from E. coli; prey preabsorbed on Ni-NTA resin, then incubated with bait 1 hr at room temperature and captured on Ni-NTA; 50 mM Tris pH 7.5, 150 mM NaCl, 0.2% glycerol, 0.6% Triton X-100, 0.5 mM β-mercaptoethanol; six washes with 300 mM NaCl; blot with anti-MBP; settings: both partners purified
T1 construct: ARGONAUTE 10 (AGO10), A. thaliana; source: E. coli BL21 (DE3), purified (amylose resin); not shown: MBP, N-terminal, kept
T1 sequence (looked up): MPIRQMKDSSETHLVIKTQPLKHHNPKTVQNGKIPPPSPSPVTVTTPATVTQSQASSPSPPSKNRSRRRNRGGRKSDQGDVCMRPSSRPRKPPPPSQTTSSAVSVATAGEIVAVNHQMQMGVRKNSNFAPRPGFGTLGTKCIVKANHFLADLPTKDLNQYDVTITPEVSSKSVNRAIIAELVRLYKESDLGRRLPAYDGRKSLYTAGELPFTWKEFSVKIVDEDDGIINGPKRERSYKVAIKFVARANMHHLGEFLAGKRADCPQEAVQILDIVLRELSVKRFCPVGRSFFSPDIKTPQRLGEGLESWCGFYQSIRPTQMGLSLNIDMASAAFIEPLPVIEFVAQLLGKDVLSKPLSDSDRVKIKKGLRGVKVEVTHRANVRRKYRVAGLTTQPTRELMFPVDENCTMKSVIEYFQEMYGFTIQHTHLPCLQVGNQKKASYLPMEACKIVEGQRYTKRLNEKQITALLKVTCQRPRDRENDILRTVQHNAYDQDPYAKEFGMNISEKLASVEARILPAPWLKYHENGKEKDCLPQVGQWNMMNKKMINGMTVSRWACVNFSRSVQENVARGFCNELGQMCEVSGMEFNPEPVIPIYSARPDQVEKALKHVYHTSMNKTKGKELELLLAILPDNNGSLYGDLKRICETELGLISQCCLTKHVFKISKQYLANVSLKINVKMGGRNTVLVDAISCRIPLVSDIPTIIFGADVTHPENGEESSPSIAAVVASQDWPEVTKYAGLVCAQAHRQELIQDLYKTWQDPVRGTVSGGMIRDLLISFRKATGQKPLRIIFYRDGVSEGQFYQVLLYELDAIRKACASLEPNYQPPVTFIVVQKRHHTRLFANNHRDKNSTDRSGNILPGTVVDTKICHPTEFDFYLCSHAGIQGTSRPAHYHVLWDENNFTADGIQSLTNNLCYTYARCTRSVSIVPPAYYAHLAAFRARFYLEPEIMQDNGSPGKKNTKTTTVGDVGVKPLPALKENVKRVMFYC

MBP-AGO10 PIWI (625-988) = target: T2, MBP-AGO10 PIWI (625-988) (A. thaliana, UniProt Q9XGW1 625-988); assay: as above; settings: both partners purified
T2 construct: AGO10, A. thaliana, residues 625-988 (PIWI); source: E. coli BL21 (DE3), purified (amylose resin); not shown: MBP, N-terminal, kept
T2 sequence (looked up): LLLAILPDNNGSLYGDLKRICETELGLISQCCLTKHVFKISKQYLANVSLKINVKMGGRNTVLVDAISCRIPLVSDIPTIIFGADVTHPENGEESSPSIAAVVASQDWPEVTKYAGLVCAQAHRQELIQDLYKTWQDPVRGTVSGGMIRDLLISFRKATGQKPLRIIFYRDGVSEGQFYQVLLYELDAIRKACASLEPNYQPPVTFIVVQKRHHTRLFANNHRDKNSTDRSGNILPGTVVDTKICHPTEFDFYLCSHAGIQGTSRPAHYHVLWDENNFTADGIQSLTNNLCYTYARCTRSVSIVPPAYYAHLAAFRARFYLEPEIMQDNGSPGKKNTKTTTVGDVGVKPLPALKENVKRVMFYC

MBP-AGO1 = target: T3, MBP-AGO1 (A. thaliana, UniProt O04379 1-1048); assay: as above; settings: both partners purified
T3 construct: ARGONAUTE 1 (AGO1), A. thaliana; purified as described in Zhang et al., 2006b; source: E. coli, purified (amylose resin); not shown: MBP, N-terminal, kept
T3 sequence (looked up): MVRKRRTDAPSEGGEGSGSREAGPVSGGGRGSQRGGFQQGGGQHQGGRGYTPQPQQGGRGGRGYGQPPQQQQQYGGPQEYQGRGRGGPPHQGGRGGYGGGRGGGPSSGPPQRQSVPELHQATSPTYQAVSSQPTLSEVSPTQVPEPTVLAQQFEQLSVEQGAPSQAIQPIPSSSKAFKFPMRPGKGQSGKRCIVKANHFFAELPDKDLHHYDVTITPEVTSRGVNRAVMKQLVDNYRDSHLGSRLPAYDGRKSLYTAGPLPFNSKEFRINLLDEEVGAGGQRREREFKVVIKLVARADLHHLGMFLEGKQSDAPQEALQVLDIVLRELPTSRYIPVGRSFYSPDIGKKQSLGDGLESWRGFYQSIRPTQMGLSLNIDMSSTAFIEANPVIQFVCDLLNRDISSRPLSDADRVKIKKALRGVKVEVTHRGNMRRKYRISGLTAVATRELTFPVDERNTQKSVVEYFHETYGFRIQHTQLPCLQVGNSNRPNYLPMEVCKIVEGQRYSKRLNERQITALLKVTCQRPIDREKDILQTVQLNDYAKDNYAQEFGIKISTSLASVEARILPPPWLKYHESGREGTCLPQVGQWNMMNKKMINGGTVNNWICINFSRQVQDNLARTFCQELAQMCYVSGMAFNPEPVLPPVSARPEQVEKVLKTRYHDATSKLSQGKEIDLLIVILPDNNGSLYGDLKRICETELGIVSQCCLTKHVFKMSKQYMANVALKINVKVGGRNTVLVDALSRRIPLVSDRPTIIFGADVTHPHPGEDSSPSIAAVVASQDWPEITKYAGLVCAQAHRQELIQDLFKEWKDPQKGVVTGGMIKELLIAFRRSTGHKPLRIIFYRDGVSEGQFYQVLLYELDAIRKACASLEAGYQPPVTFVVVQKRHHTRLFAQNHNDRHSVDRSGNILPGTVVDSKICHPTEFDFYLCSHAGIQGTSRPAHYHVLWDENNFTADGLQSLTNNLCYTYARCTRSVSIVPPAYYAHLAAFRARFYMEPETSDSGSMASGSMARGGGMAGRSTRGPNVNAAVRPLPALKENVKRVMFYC

MBP-AGO10 NC (127-336) = target: T4, MBP-AGO10 NC (127-336) (A. thaliana, UniProt Q9XGW1 127-336); assay: as above; settings: both partners purified
T4 construct: source: E. coli BL21 (DE3), purified (amylose resin); not shown: MBP, N-terminal, kept
T4 sequence (looked up): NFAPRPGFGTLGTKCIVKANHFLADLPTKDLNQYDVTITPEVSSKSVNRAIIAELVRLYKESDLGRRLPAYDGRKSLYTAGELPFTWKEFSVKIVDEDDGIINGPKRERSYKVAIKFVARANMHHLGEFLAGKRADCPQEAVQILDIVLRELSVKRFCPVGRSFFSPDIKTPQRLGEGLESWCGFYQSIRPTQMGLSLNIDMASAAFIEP

[1] = target: the molecule itself; assay: SEC; purified proteins after SUMO protease cleavage on Superdex75 (1.6 x 60), 20 mM Tris-HCl pH 7.5, 150 mM NaCl

B1: 6His-SUMO-RICE1 (natural protein, A. thaliana, UniProt Q9SF21 1-200, looked up)
chain: MASFDGQGFMMVDNSWVQTKAIDVESTTDISPYLSKILEDSVWNGNRSIVFDVYWDVKSVSTKSEWRLCSVKFSTKNFCLFLRLPNPFCDNLKDLYRFFASKFVTFVGVQIQEDLALLKENHGIVIRSSLEIGKLAAKARGTPIVEFLGTRELAHKILWYDMSRLDSIQSKWDEASSNDRLEAAAIEGWLIFNVYDQLQQ
notes: RICE1 (At3g11770), A. thaliana; open reading frame in pET28a-SUMO-DC; source: E. coli BL21 (DE3), purified (Ni-NTA); not shown: His6, N-terminal, kept; SUMO, N-terminal, kept
B1: binds (MBP-AGO10); binds (MBP-AGO10 PIWI (625-988)); binds (MBP-AGO1). B1: binds (MBP-AGO10 NC (127-336)).

B2: RICE1 E187A, purified recombinant (enzyme, A. thaliana, UniProt Q9SF21 1-200, looked up)
chain: MASFDGQGFMMVDNSWVQTKAIDVESTTDISPYLSKILEDSVWNGNRSIVFDVYWDVKSVSTKSEWRLCSVKFSTKNFCLFLRLPNPFCDNLKDLYRFFASKFVTFVGVQIQEDLALLKENHGIVIRSSLEIGKLAAKARGTPIVEFLGTRELAHKILWYDMSRLDSIQSKWDEASSNDRLEAAAIAGWLIFNVYDQLQQ
notes: RICE1 (At3g11770), A. thaliana; point mutant made on pET28a-SUMO-RICE1; source: E. coli BL21 (DE3), purified (Ni-NTA, SUMO protease cleavage, SEC); not shown: His6, N-terminal, cleaved; SUMO, N-terminal, cleaved
B2: binds [1].

B3: RICE1 D52A, purified recombinant (enzyme, A. thaliana, UniProt Q9SF21 1-200, looked up)
chain: MASFDGQGFMMVDNSWVQTKAIDVESTTDISPYLSKILEDSVWNGNRSIVFAVYWDVKSVSTKSEWRLCSVKFSTKNFCLFLRLPNPFCDNLKDLYRFFASKFVTFVGVQIQEDLALLKENHGIVIRSSLEIGKLAAKARGTPIVEFLGTRELAHKILWYDMSRLDSIQSKWDEASSNDRLEAAAIEGWLIFNVYDQLQQ
notes: as for B2
B3: binds [1].

B4: RICE1 Y54S, purified recombinant (enzyme, A. thaliana, UniProt Q9SF21 1-200, looked up)
chain: MASFDGQGFMMVDNSWVQTKAIDVESTTDISPYLSKILEDSVWNGNRSIVFDVSWDVKSVSTKSEWRLCSVKFSTKNFCLFLRLPNPFCDNLKDLYRFFASKFVTFVGVQIQEDLALLKENHGIVIRSSLEIGKLAAKARGTPIVEFLGTRELAHKILWYDMSRLDSIQSKWDEASSNDRLEAAAIEGWLIFNVYDQLQQ
notes: as for B2
B4: binds [1].

B5: 6His-SUMO-RICE2 (natural protein, A. thaliana, UniProt Q9FNG3 1-206, looked up)
chain: MASFDGPKFKMTDGSYVQTKTIDVGSSTDISPYLSLIREDSILNGNRAVIFDVYWDVGFPETETKTKTSGWSLSSVKLSTRNLCLFLRLPKPFHDNLKDLYRFFASKFVTFVGVQIEEDLDLLRENHGLVIRNAINVGKLAAEARGTLVLEFLGTRELAHRVLWSDLGQLDSIEAKWEKAGPEEQLEAAAIEGWLIVNVWDQLSDE
notes: RICE2 (At5g06450; AtDECP), A. thaliana; open reading frame in pET28a-SUMO-DC; also called AtDECP; source: E. coli BL21 (DE3), purified (Ni-NTA); not shown: His6, N-terminal, kept; SUMO, N-terminal, kept
B5: binds (MBP-AGO10); binds (MBP-AGO10 PIWI (625-988)); binds (MBP-AGO1). B5: binds (MBP-AGO10 NC (127-336)).

B6: RICE2, purified recombinant (SUMO tag cleaved) (enzyme, A. thaliana, UniProt Q9FNG3 1-206, looked up)
chain: MASFDGPKFKMTDGSYVQTKTIDVGSSTDISPYLSLIREDSILNGNRAVIFDVYWDVGFPETETKTKTSGWSLSSVKLSTRNLCLFLRLPKPFHDNLKDLYRFFASKFVTFVGVQIEEDLDLLRENHGLVIRNAINVGKLAAEARGTLVLEFLGTRELAHRVLWSDLGQLDSIEAKWEKAGPEEQLEAAAIEGWLIVNVWDQLSDE
notes: RICE2 (At5g06450; AtDECP), A. thaliana; full-length cDNA in pET28a-SUMO (BamHI/SacI); also called AtDECP; source: E. coli BL21 (DE3), purified (Ni-NTA, SUMO protease cleavage, SEC); not shown: His6, N-terminal, cleaved; SUMO, N-terminal, cleaved
For B6, the “stoichiometry N” value [1] was roughly 6.
